Read-outs that look alike come from different tables or passages of the source.
How the values were obtained:
alpha-thrombin [1] = biological target: T1, alpha-thrombin (Homo sapiens, UniProt P00734;P00734 328-363;364-622); assay: EMSA
alpha-thrombin [2] = biological target: T1, alpha-thrombin; assay: ITC
alpha-thrombin [3] = biological target: T1, alpha-thrombin; assay: ITC; remark: listed apart in the source
alpha-thrombin [4] = biological target: T1, alpha-thrombin; assay: ITC; remark: listed apart in the source
alpha-thrombin [5] = biological target: T1, alpha-thrombin; assay: native MS

B1: ss(GGAAT)18 (ssDNA)
DNA: GGAATGGAATGGAATGGAATGGAATGGAATGGAATGGAATGGAATGGAATGGAATGGAATGGAATGGAATGGAATGGAATGGAATGGAAT
B1: no binding (alpha-thrombin [1]).

B2: ss(ATTCC)18 (structured_DNA)
DNA: ATTCCATTCCATTCCATTCCATTCCATTCCATTCCATTCCATTCCATTCCATTCCATTCCATTCCATTCCATTCCATTCCATTCCATTCC
Binder B2 has a Kd (alpha-thrombin [2]) of 746 nM, a Kd (alpha-thrombin [3]) of 1460 nM and a Kd (alpha-thrombin [4]) of 174 nM.

B3: ss(ATTCG)18 (ssDNA)
DNA: ATTCGATTCGATTCGATTCGATTCGATTCGATTCGATTCGATTCGATTCGATTCGATTCGATTCGATTCGATTCGATTCGATTCGATTCG
B3: no binding (alpha-thrombin [5]).
